Measurements as given in US20190270826A1 (Janssen / Centocor, published 2019).
Where a chain is given by its changes, count along the chain named.

T1: recombinant human IL1RAP ECD (human, UniProt Q9NPH3 21-367)
T1 construct: His-tagged; also called hIL1RAP-ECD; rhuIL1RAP
T1 sequence: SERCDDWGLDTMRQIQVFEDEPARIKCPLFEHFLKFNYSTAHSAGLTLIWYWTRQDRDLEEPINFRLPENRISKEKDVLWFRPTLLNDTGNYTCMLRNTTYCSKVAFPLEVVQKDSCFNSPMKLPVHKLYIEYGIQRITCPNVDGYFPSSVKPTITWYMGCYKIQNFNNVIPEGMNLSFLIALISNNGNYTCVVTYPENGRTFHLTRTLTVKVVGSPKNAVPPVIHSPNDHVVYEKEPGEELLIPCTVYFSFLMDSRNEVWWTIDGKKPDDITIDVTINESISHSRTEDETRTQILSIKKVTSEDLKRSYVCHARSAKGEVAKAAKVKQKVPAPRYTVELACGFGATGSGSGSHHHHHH

T2: recombinant cyno IL1RAP ECD (cynomolgus monkey, UniProt P59822 21-367 (rhesus entry))
T2 construct: also called rcynoIL1RAP
T2 sequence: T1 sequence with L183F, T273P, K326T

T3: human IL1RAP on cells (endogenous) (human, UniProt Q9NPH3 21-570)
T3 sequence (looked up): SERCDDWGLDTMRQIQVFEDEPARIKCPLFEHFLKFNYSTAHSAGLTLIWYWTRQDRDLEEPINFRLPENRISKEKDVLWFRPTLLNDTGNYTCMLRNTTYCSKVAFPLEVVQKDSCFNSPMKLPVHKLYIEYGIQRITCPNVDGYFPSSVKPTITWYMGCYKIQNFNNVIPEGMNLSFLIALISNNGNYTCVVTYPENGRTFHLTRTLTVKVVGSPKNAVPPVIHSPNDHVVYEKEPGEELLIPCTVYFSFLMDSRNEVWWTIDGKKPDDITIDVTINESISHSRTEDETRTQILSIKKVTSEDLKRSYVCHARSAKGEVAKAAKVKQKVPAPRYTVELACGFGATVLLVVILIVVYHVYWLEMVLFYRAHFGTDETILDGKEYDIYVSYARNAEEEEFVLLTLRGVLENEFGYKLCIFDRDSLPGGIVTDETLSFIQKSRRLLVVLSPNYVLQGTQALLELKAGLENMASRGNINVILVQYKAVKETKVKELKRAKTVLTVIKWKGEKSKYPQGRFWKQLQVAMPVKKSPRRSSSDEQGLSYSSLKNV

B1: IAPB57, 5G08 (hybridoma mAb, unpurified) (antibody, V domains shown)
VH: QLQLQESGPGLVKPSETLSLTCTVSGGSISSSTYYWGWIRQPPGKGLEWIGSIYFTGSTDYNPSLKSRVSISVDTSKNQFSLKLSSVTAADTAVYYCAKEDDSSGYYSFDYWGQGNLVTVSS
VL: DIQLTQSPSFLSASVGDRVTITCRASQGISSYLAWYQQKPGKAPKLLIYAASTLQSGVPSRFSGSGSGTEFTLTISSLQPEDFATYYCQQVNSYPLTFGGGTKVEIK
notes: OmniRat hybridoma product (rat constant region)
B2: IAPB55, 22A09 (hybridoma mAb, unpurified) (antibody, V domains shown)
VH: QLQLQESGPGLVKPSETLSLTCTVSGVSISSSTYYWGWLRQPPGMGLEWTGSIYFTGNTYYNPSLKSRVTISVDTSRNQFSLKLSSVTAADTAVYYCGSLFGDYGYFDYWGQGTLVTVSS
VL: EIVMTQSPATLSVSPGERATLSCRASQFISSNLAWYQQKPGQAPRLLIYGASTRATGIPARFSGSGSGTDFTLTISSLQSEDFAVYYCQQYNNWPFTFGPGTKVDIK
notes: as for B1
B3: IAPB61, 25D12 (hybridoma mAb, unpurified) (antibody, V domains shown)
VH: B2 VH
VL: B2 VL with S14P, F96S
notes: as for B1
B4: IC3B1 (bispecific antibody, human IgG4 S228P, kappa, lambda, F234A L235A)
heavy 1: EVQLVESGGGLVQPGGSLKLSCAASGFTFNTYAMNWVRQASGKGLEWVGRIRSKYNAYATYYAASVKGRFTISRDDSKNTAYLQMNSLKTEDTAVYYCTRHGNFGNSYVSWFAYWGQGTLVTVSSASTKGPSVFPLAPCSRSTSESTAALGCLVKDYFPEPVTVSWNSGALTSGVHTFPAVLQSSGLYSLSSVVTVPSSSLGTKTYTCNVDHKPSNTKVDKRVESKYGPPCPPCPAPEAAGGPSVFLFPPKPKDTLMISRTPEVTCVVVDVSQEDPEVQFNWYVDGVEVHNAKTKPREEQFNSTYRVVSVLTVLHQDWLNGKEYKCKVSNKGLPSSIEKTISKAKGQPREPQVYTLPPSQEEMTKNQVSLTCLVKGFYPSDIAVEWESNGQPENNYKTTPPVLDSDGSFLLYSKLTVDKSRWQEGNVFSCSVMHEALHNHYTQKSLSLSLGK
light 1: QAVVTQEPSLTVSPGGTVTLTCRSSTGAVTTSNYANWVQQKPGQAPRGLIGGTNKRAPGTPARFSGSLLGGKAALTLSGAQPEDEAEYYCALWYSNLWVFGGGTKLTVLGQPKAAPSVTLFPPSSEELQANKATLVCLISDFYPGAVTVAWKADSSPVKAGVETTTPSKQSNNKYAASSYLSLTPEQWKSHRSYSCQVTHEGSTVEKTVAPTECS
heavy 2: not shown
light 2: EIVLTQSPGTLSLSPGERATLSCRASQSISNDLNWYQQKPGKAPKLLIYYASSLQSGVPSRFSGSGSGTDFTLTINSLQPEDFATYYCQQSFTAPLTFGQGTKVEIKRTVAAPSVFIFPPSDEQLKSGTASVVCLLNNFYPREAKVQWKVDNALQSGNSQESVTEQDSKDSTYSLSSTLTLSKADYEKHKVYACEVTHQGLSSPVTKSFNRGEC
notes: IgG4-PAA, Fab arm exchange; also called IAPB47 x CD3B220
B5: IC3B8 (bispecific antibody, human IgG4 S228P, kappa, lambda, F234A L235A)
heavy 1: B4 heavy 1
light 1: B4 light 1
heavy 2: not shown
light 2: not shown
notes: IgG4-PAA, Fab arm exchange; also called IAPB23 x CD3B220
B6: IC3B9 (bispecific antibody, human IgG4 S228P, kappa, lambda, F234A L235A)
heavy 1: B4 heavy 1
light 1: B4 light 1
heavy 2: not shown
light 2: not shown
notes: IgG4-PAA, Fab arm exchange; also called IAPB25 x CD3B220
B7: IC3B13 (bispecific antibody, human IgG4 S228P, lambda, F234A L235A)
heavy 1: B4 heavy 1
light 1: B4 light 1
heavy 2: not shown
light 2: QSALTQPRSVSGSPGHSVTISCTGTSSDVGDYNYVSWYQQRPGKVPKLLIYDVSKRPSGVPDRFSGSKSGNTASLTISGLQAEDEAIYFCASYAGNYNVVFGGGTKLTVLGQPKAAPSVTLFPPSSEELQANKATLVCLISDFYPGAVTVAWKADSSPVKAGVETTTPSKQSNNKYAASSYLSLTPEQWKSHRSYSCQVTHEGSTVEKTVAPTECS
notes: IgG4-PAA, Fab arm exchange; also called IAPB63 x CD3B220
B8: IC3B4 (bispecific antibody, human IgG4 S228P, kappa, lambda, F234A L235A)
heavy 1: B4 heavy 1
light 1: B4 light 1
heavy 2: not shown
light 2: not shown
notes: IgG4-PAA, Fab arm exchange; also called IAPB61 x CD3B220
B9: IC3B14 (bispecific antibody, human IgG4 S228P, lambda, F234A L235A)
heavy 1: B4 heavy 1
light 1: B4 light 1
heavy 2: not shown
light 2: B7 light 2 with A91S
notes: IgG4-PAA, Fab arm exchange; also called IAPB64 x CD3B220
B10: IC3B12 (bispecific antibody, human IgG4 S228P, kappa, lambda, F234A L235A)
heavy 1: B4 heavy 1
light 1: B4 light 1
heavy 2: not shown
light 2: not shown
notes: IgG4-PAA, Fab arm exchange; also called IAPB55 x CD3B220

biological target: T1, recombinant human IL1RAP ECD; experiment: SPR (ProteOn)
Description: The rates of IL1RAP ECD association and dissociation were measured for each variant. The biosensor surface was prepared by covalently coupling Goat anti-Human IgG (Fc) to the surface of a GLC chip (BioRad) using the manufacturer instructions for amine-coupling chemistry. […] The RU immobilized also included a goat anti-mouse Fc antibody that was added to capture other antibodies not included in the ones reported here. Since the mixture was 1:1 about 50% of these RU immobilized are expected to be goat anti-human Fc. The kinetic experiments were performed at 25° C. in running buffer (PBS pH 7.4, 0.005% P20, 3 mM EDTA). […] (1:3) serial dilutions of human IL1RAP ECD, starting at 400 nM were prepared in running buffer. […] The reference spots (Goat anti-Human IgG (Fc)-modified surface) containing no candidate captured were used as a reference surface. Capture of mAb was followed by a 3 minute injection (association phase) of antigen at 40 μL/min, followed by 10 minutes of buffer flow (dissociation phase). […] Data was processed on the instrument software. Double reference subtraction of the data was performed by subtracting the curves generated by buffer injection from the reference-subtracted curves for analyte injections. Kinetic analysis of the data was performed using 1:1 Langmuir binding model with group fit.

| Kd | koff | kon | Binder |
| --- | --- | --- | --- |
| 0.16 nM | 0.000129 s⁻¹ | 807000 M⁻¹ s⁻¹ | B1 |
| 1.64 nM | 0.000747 s⁻¹ | 454000 M⁻¹ s⁻¹ | B2 |
| 17.5 nM | 0.0142 s⁻¹ | 810000 M⁻¹ s⁻¹ | B3 |

biological target: T1, recombinant human IL1RAP ECD; experiment: SPR; human KD over cyno KD

| Hu/Cyno KD Ratio | Binder |
| --- | --- |
| 5.1 | B4 |
| 3.7 | B5 |
| 1.1 | B6 |
| 0.3 | B7 |
| 1.1 | B8 |
| 0.2 | B9 |
| 1.4 | B10 |

biological target: T2, recombinant cyno IL1RAP ECD; experiment: SPR

| Kd | koff | kon | Binder |
| --- | --- | --- | --- |
| 0.212 nM | 0.000236 s⁻¹ | 1.11e+06 M⁻¹ s⁻¹ | B4 |
| 2.7 nM | 0.00121 s⁻¹ | 448000 M⁻¹ s⁻¹ | B5 |
| 27.8 nM | 0.053 s⁻¹ | 1.91e+06 M⁻¹ s⁻¹ | B6 |
| 0.451 nM | 0.000532 s⁻¹ | 1.18e+06 M⁻¹ s⁻¹ | B7 |
| 10.2 nM | 0.0148 s⁻¹ | 1.46e+06 M⁻¹ s⁻¹ | B8 |
| 0.993 nM | 0.000858 s⁻¹ | 864000 M⁻¹ s⁻¹ | B9 |
| 0.218 nM | 0.000331 s⁻¹ | 1.52e+06 M⁻¹ s⁻¹ | B10 |

biological target: T3, human IL1RAP on cells (endogenous); experiment: cell-based or functional assay

| Binder | EC50, T-cell mediated cytotoxicity |
| --- | --- |
| B4 | 0.049 nM |
| B5 | 0.138 nM |
| B7 | 0.054 nM |
| B9 | 0.1 nM |
| B10 | 1.3 nM |

biological target: T1, recombinant human IL1RAP ECD; experiment: SPR, summary

| Kd | Binder |
| --- | --- |
| 1.09 nM | B4 |
| 9.96 nM | B5 |
| 29.7 nM | B6 |
| 0.122 nM | B7 |
| 11.2 nM | B8 |
| 0.246 nM | B9 |
| 0.313 nM | B10 |

biological target: T2, recombinant cyno IL1RAP ECD; experiment: SPR, summary

| Kd | Binder |
| --- | --- |
| 0.212 nM | B4 |
| 2.7 nM | B5 |
| 27.8 nM | B6 |
| 0.451 nM | B7 |
| 10.2 nM | B8 |
| 0.993 nM | B9 |
| 0.218 nM | B10 |

biological target: T1, recombinant human IL1RAP ECD; experiment: SPR

| Kd | koff | kon | Binder |
| --- | --- | --- | --- |
| 1.09 nM | 0.000759 s⁻¹ | 697000 M⁻¹ s⁻¹ | B4 |
| 9.96 nM | 0.00298 s⁻¹ | 300000 M⁻¹ s⁻¹ | B5 |
| 29.7 nM | 0.0547 s⁻¹ | 1.84e+06 M⁻¹ s⁻¹ | B6 |
| 0.122 nM | 0.000114 s⁻¹ | 938000 M⁻¹ s⁻¹ | B7 |
| 11.2 nM | 0.0129 s⁻¹ | 1.15e+06 M⁻¹ s⁻¹ | B8 |
| 0.246 nM | 0.000171 s⁻¹ | 695000 M⁻¹ s⁻¹ | B9 |
| 0.313 nM | 0.000361 s⁻¹ | 1.15e+06 M⁻¹ s⁻¹ | B10 |

biological target: T1, recombinant human IL1RAP ECD; experiment: SPR; remark: another data set of the same source

| Kd | Binder |
| --- | --- |
| 1.09 nM | B4 |
| 9.96 nM | B5 |
| 29.7 nM | B6 |
| 0.122 nM | B7 |
| 11.2 nM | B8 |
| 0.246 nM | B9 |
| 0.313 nM | B10 |

biological target: T2, recombinant cyno IL1RAP ECD; experiment: SPR; remark: another data set of the same source

| Kd | Binder |
| --- | --- |
| 0.212 nM | B4 |
| 2.7 nM | B5 |
| 27.8 nM | B6 |
| 0.451 nM | B7 |
| 10.2 nM | B8 |
| 0.993 nM | B9 |
| 0.218 nM | B10 |
